Columns and labels:
[1] = test system: cartilage cells; conditions: intra-articular administration, Nakazawa et al. 2002; cited from earlier work
[2] = test system: thioglycolate-induced peritoneal macrophages; test: Flow cytometry reactivity of antibody with peritoneal macrophages; format: binding, Lewis rats; conditions: Lewis rat peritoneal macrophages, co-stained anti-CD11b/c
Description: (§1) After the end of reaction, stainability was measured using a flow cytometer. […], 3% thioglycolate was intraperitoneally administered to Lewis rats, and peritoneal macrophages were collected 4 days later. The negative control antibody or the 4A67 antibody was added to the macrophages adjusted to 1×10^5 for the same reaction as above, followed by further adding an anti-CD11b/c antibody labeled with phycoerythrin or the negative control antibody labeled with phycoerythrin for reaction. After the reaction, stainability was measured using a flow cytometer.

[3] = test system: rat FR-β-expressing B300-19; test: Flow cytometry reactivity of antibody with FR-β-expressing B300-19 cells; format: binding; conditions: 1×10^5 cells, APC-labeled anti-mouse IgM
Description: The resultant hybridomas were cloned by limiting dilution culture adjusted to 1 cell per well of a 96-well plate. The cloned cells were sorted by reactivity with FR-β-expressing cells. The isotype of the mouse monoclonal antibodies was determined using a mouse immunoglobulin isotyping ELISA kit (Pharmingen). As a result, the mouse anti-rat FR-β monoclonal antibodies obtained were IgM-type clone 4A67. The reactivity of these antibodies to the antigen was analyzed by flow cytometry.
as §1

## C[C@H]1C[C@@H]2[C@H]([C@@H](O)C[C@@]3(C)[C@H]2CC[C@]3(O)C(=O)CO)[C@@]2(C)C=CC(=O)C=C12 [Steroid, methylprednisolone]
[1]
  apoptotic death of cartilage cells: causes the apoptotic death of cartilage cells

B1: 4A67: IgM-type mouse anti-rat FR-β monoclonal antibody (antibody, V domains shown)
VH: QIQLVQSGPELKKPGETVKISCKASGYTFTNYGMNWVKQAPGKGLKWMGWINTYTGEPTYTDDFKGRFAFSLETSASTAYLQINNLKNEDMATYFCARKGAMDYWGQGTSVTVSS
VL: QIVLTQSPAIMSASPGEKVTMTCSASSSVSYMHWYQQKSGTSPKRWIYDTSKLASGVPARFSGSGSGTSYSLTISSMEAEDAATYYCQQWSSNPPTFGSGTKLEIK
[2]
  reactivity with thioglycolate-induced peritoneal macrophages: reacts
[3]
  reactivity with rat FR-β-expressing B300-19: reacts

Source: US20140242073A1, “CARTILAGE/BONE DESTRUCTION SUPPRESSOR” (priority 2011, published 2014)
